Experiments:
Format in all cases: binding
Details in all cases: β-galactosidase ONPG assay, 1 μM ligand or vehicle
PPAR (LBD of mPPARα) = target: T1, PPAR (LBD of mPPARα) (Mus musculus, UniProt P23204); assay: Yeast two-hybrid interaction with PPAR
T1 construct: PPAR (LBD of mPPARα); expressed in transfected cells; host or cells: Saccharomyces cerevisiae Y190
T1 sequence (P23204 239-466 limits assumed): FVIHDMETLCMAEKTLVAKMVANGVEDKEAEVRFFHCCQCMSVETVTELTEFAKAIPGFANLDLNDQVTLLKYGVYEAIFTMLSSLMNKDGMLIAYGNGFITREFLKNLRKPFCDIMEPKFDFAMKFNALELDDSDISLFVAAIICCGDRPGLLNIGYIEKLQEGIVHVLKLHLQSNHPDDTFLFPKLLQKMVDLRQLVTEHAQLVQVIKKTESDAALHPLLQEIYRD
T1 sequence (Q9Y6Q9 401-1204 E704Q partner limits assumed): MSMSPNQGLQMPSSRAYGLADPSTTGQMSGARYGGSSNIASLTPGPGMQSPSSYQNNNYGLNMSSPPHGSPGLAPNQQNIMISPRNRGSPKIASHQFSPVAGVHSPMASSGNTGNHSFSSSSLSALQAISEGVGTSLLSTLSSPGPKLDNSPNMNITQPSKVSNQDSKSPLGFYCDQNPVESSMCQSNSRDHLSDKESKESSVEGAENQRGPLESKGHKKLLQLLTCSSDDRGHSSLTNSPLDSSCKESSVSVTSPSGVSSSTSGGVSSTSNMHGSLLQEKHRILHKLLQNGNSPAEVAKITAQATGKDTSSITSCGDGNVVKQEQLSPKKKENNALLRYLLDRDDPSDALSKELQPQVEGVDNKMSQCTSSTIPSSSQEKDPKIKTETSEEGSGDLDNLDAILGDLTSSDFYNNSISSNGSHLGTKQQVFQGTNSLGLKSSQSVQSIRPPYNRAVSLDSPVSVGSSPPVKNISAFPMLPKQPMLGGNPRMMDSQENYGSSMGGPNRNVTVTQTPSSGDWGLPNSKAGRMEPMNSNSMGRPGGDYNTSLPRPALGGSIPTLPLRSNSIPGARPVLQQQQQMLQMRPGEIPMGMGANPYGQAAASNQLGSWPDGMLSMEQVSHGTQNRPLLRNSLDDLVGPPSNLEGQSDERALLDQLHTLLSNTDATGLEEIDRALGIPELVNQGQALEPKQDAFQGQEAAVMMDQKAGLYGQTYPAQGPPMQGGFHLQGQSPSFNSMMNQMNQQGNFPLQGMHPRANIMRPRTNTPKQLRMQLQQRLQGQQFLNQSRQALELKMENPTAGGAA
Procedure: (§1) The protein—protein interactions between RAC3 and several steroid/nuclear receptors were analyzed by the yeast two-hybrid system. The original two-hybrid clone, RAC3.1 in pGAD10 vector, was retransformed together with yeast expression vectors for Gal4 DBD fusion of selected hormone receptor genes into Y190 cells. The receptors used include RAR (full-length hRARα), RXR (full-length hRXRα), VDR (LBD of human Vitamin D receptor), PPAR (LBD of mPPARα), TR (LBD) of hTRβ), COUP (LBD of COUP-TFI). Three independent colonies from each transformation were selected and analyzed for expression of […] activities by liquid ONPG assay (FIG. 6) after treatment with 1 μM of corresponding ligands (closed bars), or with equal concentration of vehicle alone (open bars). […] The ligands used in these experiments were atRA, VitD3 (1,25-dihydroxyvitamin D3), and Wy (Wy 14,642). […] In the absence of ligand, RAC3 can interact with RAR and PPAR.

RAR (full-length hRARα) = target: T2, RAR (full-length hRARα) (Homo sapiens, UniProt P10276); assay: Yeast two-hybrid interaction with RAR
T2 construct: RAR (full-length hRARα); expressed in transfected cells; host or cells: Saccharomyces cerevisiae Y190
T2 sequence (P10276 1-462): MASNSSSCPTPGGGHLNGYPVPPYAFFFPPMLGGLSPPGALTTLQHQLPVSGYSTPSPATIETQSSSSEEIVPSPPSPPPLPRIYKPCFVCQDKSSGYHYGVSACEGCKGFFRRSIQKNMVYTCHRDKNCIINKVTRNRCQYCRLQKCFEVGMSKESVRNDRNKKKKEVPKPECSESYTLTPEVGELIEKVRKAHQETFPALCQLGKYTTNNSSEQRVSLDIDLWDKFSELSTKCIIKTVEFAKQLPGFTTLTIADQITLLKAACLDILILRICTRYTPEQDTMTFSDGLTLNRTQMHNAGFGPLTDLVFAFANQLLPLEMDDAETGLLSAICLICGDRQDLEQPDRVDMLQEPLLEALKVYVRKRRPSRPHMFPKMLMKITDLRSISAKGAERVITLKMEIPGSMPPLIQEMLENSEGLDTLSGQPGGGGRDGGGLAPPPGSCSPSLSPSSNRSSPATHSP
T2 sequence (Q9Y6Q9 401-1204 E704Q partner limits assumed): T1 sequence (Q9Y6Q9 401-1204 E704Q partner limits assumed)
Procedure: as §1

RXR (full-length hRXRα) = target: T3, RXR (full-length hRXRα) (Homo sapiens, UniProt P19793); assay: Yeast two-hybrid interaction with RXR
T3 construct: RXR (full-length hRXRα); expressed in transfected cells; host or cells: Saccharomyces cerevisiae Y190
T3 sequence (P19793 1-462): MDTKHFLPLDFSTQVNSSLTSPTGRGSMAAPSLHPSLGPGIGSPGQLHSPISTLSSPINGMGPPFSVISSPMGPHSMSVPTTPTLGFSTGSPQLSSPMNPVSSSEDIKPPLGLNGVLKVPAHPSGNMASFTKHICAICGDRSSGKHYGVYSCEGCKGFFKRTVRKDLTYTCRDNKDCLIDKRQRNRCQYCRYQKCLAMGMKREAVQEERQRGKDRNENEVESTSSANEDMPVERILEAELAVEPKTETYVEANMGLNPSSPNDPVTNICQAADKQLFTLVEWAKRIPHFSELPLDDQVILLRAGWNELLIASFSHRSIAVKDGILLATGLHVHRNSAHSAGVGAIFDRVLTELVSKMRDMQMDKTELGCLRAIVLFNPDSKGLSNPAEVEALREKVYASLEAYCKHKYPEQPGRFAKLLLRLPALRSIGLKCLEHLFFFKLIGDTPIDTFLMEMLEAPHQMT
T3 sequence (Q9Y6Q9 401-1204 E704Q partner limits assumed): T1 sequence (Q9Y6Q9 401-1204 E704Q partner limits assumed)
Procedure: as §1

interaction with PPAR (PPAR (LBD of mPPARα)): ligand-dependent manner
interaction with RXR (RXR (full-length hRXRα)): ligand-dependent manner
Substance: RAC3: transcriptional coactivator of steroid/nuclear receptors, protein of about 1417 amino acids (SEQ ID NO:2); RAC3.1 is the two-hybrid clone, amino acids 401–1204
interaction with RAR (RAR (full-length hRARα)): Ligand treatment enhanced these interactions

— US7132258B1, “Nucleic acid encoding vitamin D receptor related polypeptide” (University of Massachusetts, priority 1998, dated 2006)
